In patent US12497461B2, “Human NTCP-binding antibody capable of inhibiting infection of hepatitis B virus (HBV) to human hepatocytes” (priority 2019, dated 2025):

How the values were obtained:
[1] = tested on: pseudo-HBV (HBV/NL); assay: Infection inhibitory activity test using pseudo-HBV with integrated NanoLuc gene (Example 1); format: cell-based, hepatitis B virus (HBV); details: pseudo-virus, FIG. 1A
Description: The culture supernatant of 61,500 hybridomas was allowed to react with B lymphoma cell line forcibly expressing hNTCP and a parent cell line, washed and stained with a fluorescence-labeled anti-mouse IgG antibody. Screening was carried out by FACS to obtain 700 hybridoma cell lines producing an antibody that binds to an NTCP. The positive-hybridoma culture supernatant was screened by an HBV inhibitory activity test using a pseudo-virus. […] Using the culture supernatant of each clone, the test was repeated. As is apparent from FIG. 1A, hybridoma clones producing an antibody, which lowers an HBV infection rate but not viability of cells, were obtained.
The clone-derived antibodies established were purified and the activities of them were checked again by a test for infection inhibitory activity using pseudo-HBV obtained by integrating a NanoLuc gene into the genome.

[2] = molecular target: T1, human NTCP (Homo sapiens, UniProt Q14973); assay: In vitro bile acid ([3H]-taurocholic acid) uptake in human NTCP-expressing HepG2 (Example 1); format: cell-based
T1 construct: expressed in transfected cells; host or cells: HepG2 cells, lentiviral transduction
T1 sequence (Q14973 1-349): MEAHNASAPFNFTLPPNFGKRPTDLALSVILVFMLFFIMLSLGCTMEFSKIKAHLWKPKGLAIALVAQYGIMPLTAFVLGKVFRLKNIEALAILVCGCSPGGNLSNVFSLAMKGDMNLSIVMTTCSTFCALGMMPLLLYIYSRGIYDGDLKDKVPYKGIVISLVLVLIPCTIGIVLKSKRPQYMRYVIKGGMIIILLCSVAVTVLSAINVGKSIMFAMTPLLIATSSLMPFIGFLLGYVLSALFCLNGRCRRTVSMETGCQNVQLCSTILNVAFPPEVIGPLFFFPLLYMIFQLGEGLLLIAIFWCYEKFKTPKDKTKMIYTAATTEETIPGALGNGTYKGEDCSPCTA

[3] = molecular target: T2, epitope region-containing peptide fragment (AFPPEVIGPLFFFPLLYMIFQLGEG-biotin) (Homo sapiens, UniProt Q14973); assay: Surface plasmon resonance assay (BIAcore) of antigen binding affinity; details: 25° C.; antibody immobilized on CM5 chip
T2 sequence (Q14973 273-297 limits assumed): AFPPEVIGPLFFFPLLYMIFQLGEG
Description: In short, a carboxymethylated dextran biosensor chip (CM5, BIAcore Inc.) was activated by N-ethyl-N′-(3-dimethylaminopropyl)-carbodiimide hydrochloride (EDC) and N-hydroxysuccinimide (NHS) in accordance with the provider's instruction. An anti-mouse IgG antibody was diluted with 10 mM sodium acetate (pH5.2) up to 30 μg/ml. The dilution was injected at a flow rate of 5 to 10 μl/minute such that the reaction unit (RU) of the protein bound became 9,000 to 14,000 RU. In contrast, an anti-human IgG antibody was diluted with 10 mM sodium acetate (pH5.0) up to 25 μg/ml. The diluted antibody was injected at a flow rate of 5 to 10 μl/minute such that the reaction unit (RU) of the protein bound became 9,000 to 14,000 RU. After injection of each of the anti IgG antibodies, 1 M ethanolamine was injected in order to block unreactive groups. For kinetic measurement, N6HB426 antibody diluted with a running buffer (HBS-P: 10 mM HEPES pH7.5, 150 mM NaCl, 0.005% NP40) up to 10 μg/ml was immobilized onto CM5 chip via the anti-mouse IgG antibody, in advance. To the chip, a solution of an epitope region-containing peptide fragment ([…]-biotin: SEQ ID NO: 24) diluted with the running buffers at different concentrations was added at 25° C. at a flow rate of 10 μl/minute for 2 minutes. In contrast, the recombinant N6HB426 human chimeric IgG4 antibody was diluted with the running buffer up to 10 μg/ml and then was immobilized onto a sensor chip (CM5) via the anti-human IgG antibody in advance. To the chip, a solution of an epitope region-containing peptide fragment diluted with the running buffers at different concentrations was added at 25° C. at a flow rate of 10 μl/minute for 2 minutes.
The refractive index of the solution varied in correlation to the mass of a chip surface changed when a peptide fragment molecule bound to N6HB426 antibody on the sensor chip, was monitored in real-time. Using simple one-to-one Langmuir binding model (BIAcore Evaluation software version 3.1) by fitting sensor grams of antigen-antibody association and dissociation at the same time, association rate (Ka) and dissociation rate (Kd) were calculated. A Kd/Ka ratio was calculated to obtain an equilibrium dissociation constant (KD).

[4] = tested on: HBV (Genotype C or Genotype D)

B1: N6HB426-20 antibody: anti-human NTCP monoclonal antibody from a sub-clone of N6HB426 hybridoma; VH SEQ ID NO: 3, VL SEQ ID NO: 4 (antibody, V domains shown)
VH: QVQLQQSGAELVKPGASVKLSCKASDFTFTEYTIHWIKQMSGQGLEWIGWFYPGSGDIKYSEKFKDKATLTADKSSSTVYMELNRLTSEDSAVYFCARHMRDFRGFYYGRFYFDYWGQGTTLTVSS
VL: EIVLTQSPAIMSASPGEKVTITCRASSSVSSSYLHWYQQKSGVSPKLWIYSTSNLASGVPARFSGSGSGTSYSLTINSVEAEDAATYYCQQYSGYRWTFGGGTTLEIKRA
modifications: N6HB426 antibody heavy chain variable region; N6HB426 antiibody light chain variable region
- HBV inhibitory activity of hybridoma culture supernatant [1]: comparable to preS1 peptide
- inhibition of bile acid uptake ([2]; 1000 nM, 1 µM): 3%
- inhibition of bile acid uptake ([2]; 1000 nM, listed as purified N6HB426 antibody, 1 µM): at most 2%
- inhibition of bile acid uptake ([2]; at concentration required for inhibition of infection (IC50 20 to 30 nM)): virtually did not inhibit
- Ka (1/Ms) association rate [3]: 821.2 M⁻¹ s⁻¹
- Kd (1/s) dissociation rate [3]: 3.19e-08 s⁻¹
- inhibitory activity on infection of normal human hepatocytes with HBV [4]: comparable to preS1
